Drawing on the Immune Epitope Database (IEDB), this text covers Kd for 20 sequences.

What all share (assay): IEDB peptide-MHC binding, purified MHC/competitive/radioactivity; filed as Kd, often an IC50 or EC50 that approximates it; ≥ and ≤ were set here for values at or beyond the usual limits of such assays
Test [1] deals with HLA-A*30:02.
Test [2] has as its target HLA-A*26:01.
Test [3] deals with HLA-A*01:01.
Test [4] deals with HLA-A*31:01. To be noted: source organism: Triticum aestivum.
In test [5] the target is HLA-A*23:01.
The target in test [6] is HLA-A*29:02.
Test [7] deals with HLA-A*11:01. To be noted: source organism: Triticum aestivum.
For test [8], the target named is HLA-A*03:01. To be noted: source organism: Triticum aestivum.
For test [9], the target named is HLA-A*24:02.
Test [10] has as its target HLA-A*68:01. To be noted: source organism: Triticum aestivum.
The target of test [11] is HLA-A*33:01. To be noted: source organism: Triticum aestivum.
For test [12], the target named is HLA-B*44:02.
Test [13] deals with HLA-B*44:03.
The target of test [14] is HLA-B*08:01.
Setting [15] is: source organism: Mammarenavirus lassaense.
Setting [16] is: source organism: Triticum aestivum.
Where [17] appears, read: source organism: Mammarenavirus guanaritoense.
The mark [18] stands for this setting: source organism: Dengue virus 4 Philippines/H241/1956.
Where [19] appears, read: source organism: SARS coronavirus Tor2.
[20] abbreviates: source organism: Dengue virus 1 Brazil/97-11/1997.
Where [21] appears, read: source organism: Mammarenavirus whitewaterense.
Where [22] appears, read: source organism: Dengue virus 2 Jamaica/1409/1983.
Where [23] appears, read: source organism: Lymphocytic choriomeningitis virus (strain Armstrong).

Turning to HYLCLNCLS, the dissociation constant (Kd) (as a rule, a measure of binding affinity in units of concentration) in test [1] (setting [15]) is 14.2 µM; in test [2] (setting [15]), at least 77.9 µM; in [3] (setting [15]) it was 3.73 µM.

For the sequence SSQVLQQSTY, the dissociation constant Kd is 9 µM in [4]; at least 41.5 µM in [5] (setting [16]); 2.99 µM in [6] (setting [16]); 0.588 µM in test [1] (setting [16]); 2.54 µM in [7]; 13.5 µM in test [8]. In addition, the Kd is 4.63 µM in test [2] (setting [16]), at least 42.3 µM in [9] (setting [16]), 9.51 µM in test [10] and 19 µM in [11].

On to EFFDCFKYIL, for which the Kd was determined as 1.69 µM in test [5] (setting [17]), 0.645 µM in [6] (setting [17]) and 8.7 µM in test [9] (setting [17]).

For REDLWCGSLI, the dissociation constant (Kd) was 0.256 µM in test [12] (setting [18]) and 0.401 µM in [13] (setting [18]).

With LFVTIYSHL, the dissociation constant (Kd) in [5] (setting [19]) is 0.00922 µM; in test [6] (setting [19]) it was 1.42 µM; in test [1] (setting [19]), at least 47.4 µM; in test [2] (setting [19]) it was 1.1 µM; in [9] (setting [19]), 0.132 µM; in test [3] (setting [19]), 3.76 µM.

Turning to LEENMDVEIW, the Kd in [12] (setting [20]) amounted to 0.269 µM; in [13] (setting [20]) it was 0.126 µM.

With VEGVSGGAW, the Kd is 0.151 µM in [12] (setting [18]) and 0.114 µM in test [13] (setting [18]).

Consider LTNSVIIMAY, for which the dissociation constant (Kd) in test [5] (setting [19]) is at least 70 µM; in test [6] (setting [19]), 0.00807 µM; in [1] (setting [19]), 0.0491 µM; in test [2] (setting [19]) it was 2 µM; in [9] (setting [19]), at least 70.3 µM; in [3] (setting [19]) it was 0.0981 µM.

Consider LRAQNALDNL, for which the dissociation constant Kd in test [14] (setting [20]) came out at 1.36 µM.

With EIDETCEHEY, the dissociation constant Kd in test [5] (setting [19]) is at least 70 µM; in test [6] (setting [19]), 0.656 µM; in test [1] (setting [19]), 1.06 µM; in test [2] (setting [19]), 0.492 µM; in [9] (setting [19]), at least 70.3 µM; in test [3] (setting [19]), 0.197 µM.

For the sequence FNATKFPSVY, the Kd in test [5] (setting [19]) was at least 70 µM; in test [6] (setting [19]) it was 3.04 µM; in test [1] (setting [19]), 1.21 µM; in [2] (setting [19]), at least 24.5 µM; in test [9] (setting [19]) it was at least 70.3 µM; in test [3] (setting [19]), at least 56.3 µM.

Regarding RFFLPIFSEF, the dissociation constant Kd in test [5] (setting [17]) was found to be 0.000232 µM; in [6] (setting [17]) it was 0.00103 µM; in test [9] (setting [17]) it was 0.0102 µM.

Take WDIKDPSLL: the Kd in test [5] (setting [21]) was at least 77.7 µM; in test [6] (setting [21]) it was at least 27.6 µM; in [1] (setting [21]), at least 34.8 µM; in test [2] (setting [21]) it was at least 77.9 µM; in test [9] (setting [21]) it was at least 77.5 µM; in [3] (setting [21]) it was at least 42.3 µM.

For NRRRRTAGM, the equilibrium dissociation constant (Kd) in test [14] (source organism: Dengue virus 2 Peru/IQT2913/1996) amounted to 0.0989 µM.

With FFLPIFSEF, the Kd in [5] (setting [17]) was determined as 0.000198 µM; in test [6] (setting [17]) it was 0.000921 µM; in test [9] (setting [17]) it was 0.0324 µM.

NARLKPLDI: the Kd in test [14] (source organism: Vaccinia virus WR) came to 0.000813 µM.

On to VEGVSGGSW, for which the Kd in test [12] (setting [22]) worked out at 0.22 µM; in [13] (setting [22]) it was 0.111 µM.

WCSQTSYQYL: the dissociation constant Kd in test [5] (setting [23]) was 8.29 µM; in [6] (setting [23]), 19 µM; in test [1] (setting [23]), at least 29.6 µM; in test [2] (setting [23]), at least 69.7 µM; in test [9] (setting [23]), 15.9 µM; in [3] (setting [23]) it was 1.04 µM.

Regarding NTNPIQLSSY, the dissociation constant Kd was at least 70 µM in test [5] (setting [19]); 0.966 µM in [6] (setting [19]); 0.0742 µM in [1] (setting [19]); 0.344 µM in test [2] (setting [19]); at least 70.3 µM in test [9] (setting [19]); 0.105 µM in test [3] (setting [19]).

Take FYGGWHNML: the dissociation constant (Kd) in [5] (setting [19]) is 5.18 µM; in test [6] (setting [19]), 15.5 µM; in test [1] (setting [19]), at least 100 µM; in [2] (setting [19]) it was at least 77.9 µM; in test [9] (setting [19]), at least 27.9 µM; in test [3] (setting [19]), at least 78.1 µM.
